Measurements from patent US11319552B2, “Methods for improving transformation frequency” (SYNGENTA PARTICIPATIONS AG, priority 2016, dated 2022).

Columns and labels:
immature embryos [1] = assay: Kill curve, ammonium glufosinate concentration for selection, survival percentage; format: cell-based, maize; conditions: for % Survival: plants that rooted over immature embryos transformed
Description: The expression cassette of PAT variant type 3b (SEQ ID NO: 13) was introduced into a binary vector, now referred to as 23419. Binary vector 18857 (described in Table 2), which expresses cPAT-09, was used as a control. […] For vector 23419, 75-86 immature embryos were transformed using Agrobacteria similar to the method described in Example 4. Selection was performed using 10-80 mg/L of ammonium glufosinate (Ignite®). Following selection, plantlets were regenerated and then transferred to rooting media. The survival percentage (%) is shown as the number of plants that rooted over the number of immature embryos initially transformed.

immature embryos [2] = assay: Second selection experiment, transformation frequency with 40 mg/L ammonium glufosinate or 5 mg/L bialaphos; format: cell-based, maize
Description: 10 mg/L to 40 mg/L of ammonium glufosinate all had survivor transgenic plant candidates for the binary vector comprising PAT variant type 3b. […] A second experiment was performed using 40 mg/L ammonium glufosinate, or using the GS inhibitor bialaphos at 5 mg/L. For this experiment, following transformation the immature embryos were selected, plants were regenerated and rooted, and transgenic plants were identified so that transformation frequency could be calculated.

B1: cPAT-09: control PAT DNA sequence codon optimized to Arabidopsis thaliana (SEQ ID NO: 21); tested here in binary vector 18857 (nucleic acid)
DNA: ATGTCTCCGGAGAGGAGACCAGTTGAGATTAGGCCAGCTACAGCAGCTGATATGGCCGCGGTTTGTGATATCGTTAACCATTACATTGAGACGTCTACAGTGAACTTTAGGACAGAGCCACAAACACCACAAGAGTGGATTGATGATCTAGAGAGGTTGCAAGATAGATACCCTTGGTTGGTTGCTGAGGTTGAGGGTGTTGTGGCTGGTATTGCTTACGCTGGGCCCTGGAAGGCTAGGAACGCTTACGATTGGACAGTTGAGAGTACTGTTTACGTGTCACATAGGCATCAAAGGTTGGGCCTAGGCTCCACATTGTACACACATTTGCTTAAGTCTATGGAGGCGCAAGGTTTTAAGTCAGTGGTTGCTGTTATAGGCCTTCCAAACGATCCATCTGTTAGGTTGCATGAGGCTCTAGGATACACAGCGCGGGGTACACTGCGCGCAGCTGGATACAAGCATGGTGGATGGCATGATGTTGGTTTTTGGCAAAGGGATTTTGAGTTGCCAGCTCCTCCAAGGCCAGTGAGGCCAGTTACCCAGATCTGA
modifications: derived from Streptomyces viridochromogenes
% Survival (immature embryos [1]; 10 mg/L ammonium glufosinate): 1.3%
% Survival (immature embryos [1]; 20 mg/L ammonium glufosinate): 1.3%
survival of selection (in words) (immature embryos [1]; 40 mg/L ammonium glufosinate): did not survive selection
% Survival (immature embryos [1]; 40 mg/L ammonium glufosinate): 0%
% Survival (immature embryos [1]; 80 mg/L ammonium glufosinate): 0%
Total # Events (immature embryos [2]; 5 mg/L Bialaphos): 7
Transformation frequency % (TF) (immature embryos [2]; 5 mg/L Bialaphos): 0.875%
Total # Events (immature embryos [2]; 40 mg/L ammonium glufosinate): 5
Transformation frequency % (TF) (immature embryos [2]; 40 mg/L ammonium glufosinate): 0.625%
